From publication PMC10458530, “Synthesis and Evaluation of ePSMA-DM1: A New Theranostic Small-Molecule Drug Conjugate (T-SMDC) for Prostate Cancer” (Pharmaceuticals, 2023)
Values joined by “and” are separate entries in the source; they are usually repeats but may differ in a detail not shown here. Equal values may be shown once. “Also recorded” adds a separate entry of the source. Read-outs that look alike come from different tables or passages of the source. Non-standard residues stand in square brackets, D forms with d. Residues, ends and D or L forms follow the SMILES beside them. *: point of attachment. Propanoyl(3-SS-DM1) = COc1cc2cc(c1Cl)N(C)C(=O)C[C@H](OC(=O)[C@H](C)N(C)C(=O)CCSSCCC(=O)*)[C@]1(C)O[C@H]1[C@H](C)[C@@H]1C[C@@](O)(NC(=O)O1)[C@H](OC)/C=C/C=C(\C)C2; DOTA = O=C(O)CN1CCN(CC(=O)O)CCN(CC(=O)*)CCN(CC(=O)O)CC1; EuK = O=C(O)CC[C@H](NC(=O)N[C@@H](CCCCN*)C(=O)O)C(=O)O; Sta = CC(C)C[C@H](N)[C@@H](O)CC(=O)O; Ahx = NCCCCCC(=O)O

Assays:
Stability in PBS = format: physicochemical; settings: 24 h post incubation, 37 °C
Description: [^111In]In-ePSMA-DM1 (~10 MBq, 20 µL) was mixed with 80 μL of PBS (0.01 M, pH 7.4) and incubated at 37 °C for up to 24 h. A sample of the PBS solution was loaded directly onto the radio-HPLC at 1, 4 and 24 h post incubation.

Stability in mouse serum = format: in vitro ADME; settings: 24 h post incubation, 37 °C
Description: [^111In]In-ePSMA-DM1 (~30 MBq, 70 µL) was mixed with 330 μL of mouse serum and incubated at 37 °C for up to 24 h. To a separate vial containing 50 µL of acetonitrile, 50 μL of the mouse serum solution was added after 1, 4 and 24 h of incubation. The sample was centrifuged at 5000× g for 20 min. The supernatant was analyzed by radio-HPLC.

[1] = test system: BALB/c nu/nu LS174T xenografted mice; assay: Ex vivo biodistribution; format: in vivo, mouse; settings: estimated, one-phase decay
Description: Animal experiments were performed using male BALB/c nude mice (8–10 weeks old; Janvier Labs, Le Genest-Saint-Isle, France). Animals were housed in individually ventilated cages (Blue line IVC, 2 mice per cage) under sterile standard conditions with cage enrichments present and free access to animal chow (Sniff GmbH, Soest, Germany) and water. They were acclimated for 1 week prior to experiments. Mice were subcutaneously inoculated with 4.0 × 10^6 LS174T cells in the right flank diluted in 100 μL of cell suspension […]. The average tumor volume size per group (n = 4) was of 206.2 ± 7.9 mm^3 (average weight of 105.8 ± 7.3 mg) after non-blinded grouping to enable homogenous tumor size distribution. [^111In]In-ePSMA-DM1 was injected intravenously via the tail vein. All experiments were approved by the institutional Animal Welfare Committee and were conducted in accordance to the guidelines of the Revised Dutch Act on Animal Experimentation (WOD).
Mice were intravenously injected with ~1 nmol of [^111In]In-ePSMA-DM1 (5 MBq). Mice (n = 4/timepoint) were euthanized by cervical dislocation at 1, 4 and 24 h p.i. A block group (co-injection of 50 nmol of PSMA-617) was included, and mice were euthanized at 4 h p.i. Organs (blood, heart, lungs, liver, spleen, stomach, intestines, pancreas, kidneys, muscle, skin, bone and prostate) and the tumors were collected in pre-weighed tubes, weighed after organ collection, and measured in the γ-counter, for which the calibration factor was determined by measuring different known activities of In-111. Activity was corrected for decay, and uptake was expressed as percentage of the injected dose per gram of the tissue (% ID/g). The biological half-lives in tissues of [^111In]In-ePSMA-DM1 were determined using a one-phase decay algorithm in GraphPad Prism 9.0 (GraphPad Software, Boston, MA, USA).

[2] = test system: PSMA-positive LS174T cells; assay: Resazurin-based cytotoxicity assay; format: cell-based, human; settings: for cell viability: 48 h post treatment
Description: LS174T human colon carcinoma cells transfected with human PSMA were cultured in RPMI-1640 media supplemented with 2 mM glutamine, 10% fetal bovine serum (FBS) and 0.3 mg/mL G418 (Geneticin, Sigma Aldrich, Burlington, MA, USA). The cells were provided by Dr. Sandra Heskamp (Radboud UMC, Nijmegen, The Netherlands).
A resazurin in vitro toxicology assay kit was used to determine cytotoxicity. Briefly, 5 × 10^3 LS174T cells were seeded in a volume of 100 µL per well in 96-well plates and incubated at 37 °C with 5% CO2 for 24 h before the experiment. After incubation, the media were removed, and the wells were washed once with PBS. Then, ePSMA-DM1 at the concentrations of 1, 10, 100 and 1000 nM and the positive control DM1 (1000 nM) were prepared in culture media (RPMI-1640 media supplemented with 2 mM glutamine, 10% fetal bovine serum (FBS) and 0.3 mg/mL G418). Media and PSMA-617 (100 nM) were used as negative controls. Cells were incubated with 100 µL of the tested compounds for 48 and 72 h at 37 °C with 5% CO2. After incubation, media were removed, and each well was washed once with PBS. Next, 100 µL of 10% resazurin solution (TOX8, Sigma-Aldrich) in culture media was added to each well and incubated for 2.5 h. Fluorescence was measured using the HIDEX Sense Optical System with excitation at 544 nm and emission at 590 nm. Data were analyzed using GraphPad Prism 9.0 and expressed as cell viability (%). The experiments were performed in triplicate.

Recombinant human PSMA = biological target: T1, Recombinant human PSMA (Homo sapiens, UniProt Q04609); assay: NAALADase enzymatic assay (binding to PSMA); format: biochemical
T1 construct: purchased R & D systems, Abingdon, UK
Description: Recombinant human PSMA (rhPSMA; R & D systems, Abingdon, UK) was diluted in assay buffer (50 mM HEPES, 0.1 M NaCl, pH 7.5) to 0.4 μg/mL. The substrate Ac-Asp-Glu (40 μM) was mixed with ePSMA-DM1 or with a reference (PSMA-617) at concentrations ranging from 10^−6 to 10^−13 M in a final volume of 12.5 μL assay buffer. The mixtures were combined with 12.5 μL of the rhPSMA solution and incubated for 1 h at 37 °C in 384-well black polystyrene microplates (ThermoFisher, Bleiswijk, The Netherlands). A volume of 25 μL of a working solution of the Amplex Red glutamic acid kit (ThermoFisher, Bleiswijk, The Netherlands) was added and incubated at 37 °C for 30 min. Release of glutamate was measured by fluorescence with a HIDEX Sense Optical System (Goedereede, The Netherlands) set at 535 nm (excitation) and 590 nm (emission). Data were normalized, and one-site total binding regression was applied for analysis with GraphPad Prism v9.0 (GraphPad Software, San Diego, CA, USA).

[3] = Glutathione (GSH) stability / drug release assay; format: in vitro ADME
Description: The protocol was adapted from the literature. A 5 mM solution of L-glutathione was prepared in PBS, and 990 μL aliquots were dispensed into Eppendorf tubes. To each tube, 10 μL of a solution of ePSMA-DM1 (1 mM) in MeOH was added, and the mixtures were incubated at 37 °C. Then 50 μL aliquots of the solution were taken at 10 min, 30 min, 1, 2, 4 and 6 h and analyzed by LC-MS. The experiments were performed in triplicate.

T1 sequence (Q04609 whole entry): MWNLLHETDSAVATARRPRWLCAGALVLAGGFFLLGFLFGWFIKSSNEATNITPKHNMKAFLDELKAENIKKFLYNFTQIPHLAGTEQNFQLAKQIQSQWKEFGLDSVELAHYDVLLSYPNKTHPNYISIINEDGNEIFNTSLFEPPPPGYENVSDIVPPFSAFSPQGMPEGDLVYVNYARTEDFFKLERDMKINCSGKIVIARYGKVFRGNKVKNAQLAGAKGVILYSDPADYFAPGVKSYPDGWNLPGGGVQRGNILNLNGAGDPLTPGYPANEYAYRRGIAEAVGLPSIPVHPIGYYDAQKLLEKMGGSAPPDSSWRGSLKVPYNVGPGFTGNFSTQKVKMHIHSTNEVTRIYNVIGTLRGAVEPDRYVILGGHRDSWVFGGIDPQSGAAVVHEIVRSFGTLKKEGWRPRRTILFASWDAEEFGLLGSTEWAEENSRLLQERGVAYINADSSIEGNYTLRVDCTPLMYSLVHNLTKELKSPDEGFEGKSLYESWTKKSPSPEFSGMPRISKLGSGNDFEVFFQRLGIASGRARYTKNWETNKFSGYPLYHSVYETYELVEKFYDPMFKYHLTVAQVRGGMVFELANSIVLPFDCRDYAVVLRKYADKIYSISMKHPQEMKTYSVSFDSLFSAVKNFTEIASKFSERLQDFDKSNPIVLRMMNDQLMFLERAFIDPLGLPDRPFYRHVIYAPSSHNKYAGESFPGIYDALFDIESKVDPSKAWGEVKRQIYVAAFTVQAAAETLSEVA

COc1cc2cc(c1Cl)N(C)C(=O)C[C@H](OC(=O)[C@H](C)N(C)C(=O)CCSSCCC(=O)NCCCC[C@H](NC(=O)CN1CCN(CC(=O)O)CCN(CC(=O)O)CCN(CC(=O)O)CC1)C(=O)N[C@@H](CC(=O)O)C(=O)N[C@@H](Cc1ccccc1)C(=O)N[C@@H](CC(C)C)[C@@H](O)CC(=O)NCCCCCC(=O)NCCCC[C@H](NC(=O)N[C@@H](CCC(=O)O)C(=O)O)C(=O)O)[C@]1(C)O[C@H]1[C@H](C)[C@@H]1C[C@@](O)(NC(=O)O1)[C@H](OC)/C=C/C=C(\C)C2 [[^111In]In-ePSMA-DM1] [metal not drawn] ({DOTA}-K(Propanoyl(3-SS-DM1))DF[Sta][Ahx]-EuK)
Stability in PBS (%) (Stability in PBS): 90.9% | Stability in Mouse Serum (%) (Stability in mouse serum): 82.9% | half-life in the blood [1]: 1.5 h | half-life in the tumor [1]: 2.1 h

COc1cc2cc(c1Cl)N(C)C(=O)C[C@H](OC(=O)[C@H](C)N(C)C(=O)CCSSCCC(=O)NCCCC[C@H](NC(=O)CN1CCN(CC(=O)O)CCN(CC(=O)O)CCN(CC(=O)O)CC1)C(=O)N[C@@H](CC(=O)O)C(=O)N[C@@H](Cc1ccccc1)C(=O)N[C@@H](CC(C)C)[C@@H](O)CC(=O)NCCCCCC(=O)NCCCC[C@H](NC(=O)N[C@@H](CCC(=O)O)C(=O)O)C(=O)O)[C@]1(C)O[C@H]1[C@H](C)[C@@H]1C[C@@](O)(NC(=O)O1)[C@H](OC)/C=C/C=C(\C)C2 [[^177Lu]Lu-ePSMA-DM1] [metal not drawn] ({DOTA}-K(Propanoyl(3-SS-DM1))DF[Sta][Ahx]-EuK)
Stability in PBS (%) (Stability in PBS): 81.4% | Stability in Mouse Serum (%) (Stability in mouse serum): 91.2%

COc1cc2cc(c1Cl)N(C)C(=O)C[C@H](OC(=O)[C@H](C)N(C)C(=O)CCS)[C@]1(C)O[C@H]1[C@H](C)[C@@H]1C[C@@](O)(NC(=O)O1)[C@H](OC)/C=C/C=C(\C)C2 [DM1, Mertansine, reference compound]
cell viability ([2]; 1000 nM): ~ 50% | decrease in cell viability ([2]; 1000 nM, 72 h): more than 85%

O=C(O)CC[C@H](NC(=O)N[C@@H](CCCCNC(=O)[C@H](Cc1ccc2ccccc2c1)NC(=O)[C@H]1CC[C@H](CNC(=O)CN2CCN(CC(=O)O)CCN(CC(=O)O)CCN(CC(=O)O)CC2)CC1)C(=O)O)C(=O)O [PSMA-617, reference compound]
IC50 (Recombinant human PSMA; NAALADase assay, rhPSMA, substrate Ac-Asp-Glu, read-out: IC50 (binding affinity to PSMA)): 2.19 ± 0.78 nM | decrease in viability ([2]; 100 nM, negative control): not observed

COc1cc2cc(c1Cl)N(C)C(=O)C[C@H](OC(=O)[C@H](C)N(C)C(=O)CCSSCCC(=O)NCCCC[C@H](NC(=O)CN1CCN(CC(=O)O)CCN(CC(=O)O)CCN(CC(=O)O)CC1)C(=O)N[C@@H](CC(=O)O)C(=O)N[C@@H](Cc1ccccc1)C(=O)N[C@@H](CC(C)C)[C@@H](O)CC(=O)NCCCCCC(=O)NCCCC[C@H](NC(=O)N[C@@H](CCC(=O)O)C(=O)O)C(=O)O)[C@]1(C)O[C@H]1[C@H](C)[C@@H]1C[C@@](O)(NC(=O)O1)[C@H](OC)/C=C/C=C(\C)C2 [ePSMA-DM1] ({DOTA}-K(Propanoyl(3-SS-DM1))DF[Sta][Ahx]-EuK)
IC50 (Recombinant human PSMA): 45.3 ± 1.84 nM | drug released ([3]; after 2 h, 5 mM GSH): ~ 50% and 50% | half-life at 10 µM ([3]; buffer, 5 mM GSH in PBS, 37 °C, read-out: half-life in a reducing environment (converted)): 2 h | cytotoxic effect ([2]; 1 nM, 48 and 72 h): not sufficient to elicit cell death; also recorded: not observed | cell viability ([2]; 100 nM): ~ 50% | cell viability ([2]; 1000 nM): ~ 50%
